For one assay, the target named is A119 (Homo sapiens (Human), UniProt P0DOX7 1-214). The experiment in a line: BLI (Octet RED96), antagonist captured on biosensor, ligand in solution. The protocol:
(§1) Binding activities of individual bifunctional antagonists to human ligands were measured by biolayer interferometry (BLI) using Octet RED96 (FortéBIO, Pall Corporation, USA). Binding analysis was performed by first capturing the polypeptide bifunctional antagonists to biosensors. To measure the rate of association and dissociation, the bifunctional antagonists-captured biosensors were dipped in wells containing different concentrations of ligands (such as TNF-α, TGF-β1 and TGF-β3) diluted in 1× kinetic buffer for 10 min followed by 10-20 min in 1× kinetic buffer. Note that all the ligands tested were recombinantly produced based on their human sequences. The bifunctional polypeptide antagonists-captured sensors were also submerged in wells containing 1×kinetic buffer to allow single reference subtraction in order to compensate for natural dissociation of the captured bifunctional antagonists. The binding sensorgrams were collected using the 8-channel detection mode on the biosensor. Data were acquired and analyzed using the FortéBIO Data acquisition software v11.1 (FortéBIO, Pall Corporation, USA)

The next assay has as its target A120 (Homo sapiens (Human), UniProt P0DOX7 1-214). Described as above. The protocol: as §1

B1: TGF-β3 (ligand)
chain: ALDTNYCFRNLEENCCVRPLYIDFRQDLGWKWVHEPKGYYANFCSGPCPYLRSADTTHSTVLGLYNTLNPEASASPCCVPQDLEPLTILYYVGRTPKVEQLSNMVVKSCKCS
notes: also called Transforming Growth Factor-Beta 3
Consider B1, for which the Kd with A119 and with A120 was roughly 1 pM in each case.

Values taken from US20230391892A1 (published 2023).
